According to the RNAGym collection of RNA variant scans (doi:10.1073/pnas.2313332121):

B1: TPR t1 (parent)
chain: GACCAAUCUGCCCUCAGAGCUCGAGAACAUCUUCGGAUGCAGAGGAGGCAGGCUUCGGUGGCGCGAUAGCGCCAACGUCCUCAACCUCCAAUGCAUCCCACCACAUGAUGAUGCCUGAAGAGCCUUGGUUUUUUG

Variants of: B1
Test: polymerase ribozyme fitness, log enrichment relative to wild type (log ratio); higher = more active; in vitro selection for triplet polymerase activity
Outline: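 PCR was used to build mutant libraries for each subunit of a heterodimeric triplet polymerase ribozyme, which were then transcribed. A single in vitro selection round, in triplicate, used a frozen incubation at −7 °C and recovered extended constructs by gel excision, streptavidin beads and RT-PCR. Fitness is the logarithm of genotype enrichment relative to wild-type enrichment, averaged over replicates with inverse-variance weights. The logarithm is base 2, and after Illumina sequencing only genotypes with ≥10 input reads and ≥1 read per output were kept.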

Row | Variant | polymerase ribozyme fitness (log ratio)
1 | A29U U112G | -0.993
2 | G61U G120C U125A | 0.559
3 | G77C U78G U106A | -0.0347
4 | G63C U129C | -2
5 | C49U G57A U96A | -3.31
6 | C49A C79A | -3.94
7 | A5U C12U G61A | 0.0113
8 | G61A U81A C82A C98U | -1.55
9 | U87A G117C | -3.81
10 | C13G G71C U112C G117C U125C | -5.67
11 | G52A U92A C98U A119U C124A | -3.81
12 | C12A G63A | -1.5
13 | G61U U126A | -1.86
14 | G45A G71U A84G | -2.48
15 | C49U G58U C62G | -1.16
16 | C8U C86A | -1.13
17 | C12U A41G G48A G57A C86U | -2.63
18 | C4U C53A C64U C88A C123U G127U U131G | -1.35
19 | C12A G47A C72G G93A G135U | -4.39
20 | C13U C73G C82U | -1.5
21 | U81C U112A U125G | -0.145
22 | G42U C72A U96C | -1.5
23 | C11G G57A G93A U96A | -2.56
24 | A46G C104A G113A | -2.84

Row | Variant | polymerase ribozyme fitness (log ratio)
25 | G36A G42A A43C C53U | -3.85
26 | C20U A29G G61U C115A U116C G117U G135C | -1.97
27 | U21A G60U A83U U126C | -0.934
28 | U9C C12G C53G C62U | -0.499
29 | A37U C70A C99U | -5.64
30 | G45C C80U U87A | -2.93
31 | C22G A29U G120U U133A | -5.17
32 | A6C G57C | -0.375
33 | A6U C13U C72A | 0.0717
34 | G19A A41U U78C U132C | -4.37
35 | C11G A41G | 0.309
36 | C8G G17U A26U C72G | -4.46
37 | G47A C49U G65U G69U C86U G127U | -4.94
38 | C49G C85A U112G A121G C124U | -0.43
39 | G39A G45A C53A C102U A111C | -3.94
40 | C22G A27C C56G G120C | -4.73
41 | G61A C80G U109A G113U U133G | -5.53
42 | G10C U32C G113U | -3.81
43 | U32G A68U C70U C80A C101U A111U U126G | -8.12
44 | U32G G122A | -7.09
45 | C49G A90U | -2.58
46 | G10U C89A G117U | -4.64
47 | G44A G51C C62G C85G G110C | -7.25
48 | U55G G71A C101A | -1.24

Row | Variant | polymerase ribozyme fitness (log ratio)
49 | G44C U55A A103U U130A | -5.8
50 | C22G G23A G52C | -3.57
51 | C3G G44A G47A C86G G120A | -4.34
52 | U59C A91U | -2.41
53 | A41G C64U U81A | -2.25
54 | U33A G48U G69U C97G | -3.18
55 | G51U C101A | -4.55
56 | A50C U55G G58C G61C U81A | 0.349
57 | G58C C98A | -5.61
58 | A6U G52A | -2.05
59 | G120C C123G | 0.469
60 | C8G G19A A46C G71A | -3.53
61 | C12U A16U C22G C99U | -3.39
62 | C49U C56A C70U C76A U132A | -3.06
63 | A29U G45C C115A U133A | -3.42
64 | U54A A83U G110U | -3.19
65 | A41G G52C A66C C97U | -3.69
66 | C34A G42C A121C | -4.79
67 | C13G C56U C86U U130A | -3.33
68 | U96A C104A | -3.3
69 | A50C C72U G93U U112G | -2.29
70 | U7C U78C C85A C124G | -0.586
71 | A50U U87G | -1.44
72 | C89A U129C | -2.03

Row | Variant | polymerase ribozyme fitness (log ratio)
73 | G39U C114G | -3.65
74 | G35U C40U | -4.76
75 | U7G G10U G42U A46C U54A G57A C101U C114U | -4.29
76 | C114A G135U | -1.88
77 | C72U A103U | -5.16
78 | G69A G93A | -3.19
79 | C73A A90G G107A G117U | -6.33
80 | A26U C62U A83C C104G A105C C114U U129A | -7.45
81 | G10A C11U | -0.673
82 | C12U U21G C53U A68C C124A | -6.61
83 | U9G C22A C34A C82U U130C | -6.39
84 | C12A C22A A46U C79U | -6.1
85 | C28A G39U U54C | -4.55
86 | G10C A18C C62U U133A | -3.86
87 | C34G U112A U130C | -6.03
88 | A66U C79G | -4.01
89 | A37C C102A | -2.31
90 | C70G U112G U125C | -3.92
91 | G42U A75G G93C | -2.29
92 | C3A A43G C94G C114U | -3.66
93 | G63U C115A | -1.22
94 | A50U U92A | -5.22
95 | U54A U81C A90G C123U | 0.715
96 | A100C U106A | -0.525

Row | Variant | polymerase ribozyme fitness (log ratio)
97 | U87A A108C G110A | -6.14
98 | G57A C73G G127C | -2.37
99 | C15U G58A C79U | -2.08
100 | C8G C13A G57C U78G U112A A118U | 0.98
101 | C12G C53U C64U U106C | -0.438
102 | A50G C53A C72A | -0.193
103 | C12U U21A G35A A74G | -4.28
104 | U54G G63C C70U | -1.73
105 | G120A G127A U129C | -1.04
106 | G52A U78A C115A | 0.0466
107 | C11A A37U G51U C56U A68U C98A U109A | -8.64
108 | C11U A29C C72G U112A G135U | -2.74
109 | C102A U126G | -2.89
110 | A50U G71C G117A | -3.1
111 | C28U C64A A95G C115A U129C U134A | -4.91
112 | A46C G48A G51A | -3.51
113 | C4A U7G G35U G63C G65U C98U G117U | -6
114 | A16U C53G | -1.82
115 | A46U C49G C70U A84C | -2.21
116 | C4U C12A A66C C70A | -5.72
117 | A37U C79A U87G U96A A118U | -0.000648
118 | G77C C85U | -1.99
119 | C53U G135U | -1.02
120 | G48A C88A G113U G120A | -4.63

Row | Variant | polymerase ribozyme fitness (log ratio)
121 | C15U U96C U129A | -2.88
122 | A84G A91U | -3.76
123 | G44A U129A | -1.83
124 | U7C G17A A41G G52U | -3.17
125 | C11U A29G C53U C73G | -1.9
126 | G71A A91G | -2.18
127 | C8U C13G C102A G122A C123G | -0.13
128 | A43U A74G | -1.55
129 | C15G G61A | -1.86
130 | G42A U54C G57A | -3.66
131 | U21A C72U | -2.3
132 | G57C C64A C124U | -6.08
133 | C34U G120C | -3.96
134 | G71U G77C U126C | -2.3
135 | C13A A37C C73U A118U | -1.72
136 | A5G A16C A41G C62U | -2.75
137 | A18U U125G | -3.41
138 | C8U C64A U112A | -4.99
139 | C94A G117U U125A | -5.92
140 | A29G A37C G71U G117U | -4.47
141 | C64U C123U | 1.23
142 | C22A G61U C102A G122A | -5.53
143 | C53A G61U C72U U87C G127A | -1.15
144 | C15G A74U C88A C101U | -4.74

Row | Variant | polymerase ribozyme fitness (log ratio)
145 | C15U G36A G69U C72U | -1.55
146 | C49A G63U | -1.35
147 | C82A C89A A105U U112G | -4.43
148 | G48U U131C | -0.204
149 | C123U U125G | 1.08
150 | C70G U112G | -2.86
151 | G60U U130A | -0.92
152 | G61A U116C | -0.278
153 | C3U G69U | 0.198
154 | A5G C13G A18C G35U A75G C79U A119G C123G U130C | -7.55
155 | A46C C53U U54G G120U | -0.194
156 | A2C U59A G122A | -2.15
157 | G36A C49G G69U A90G C97U G120C | 0.538
158 | C62U C80A A84C | -3.26
159 | G48U U59A G120U | -0.541
160 | C70U C98A | -4.77
161 | C72G A83U A90G C114G | -3.25
162 | A41C C56U C114A A121G | -1.11
163 | G45C G69A | -3.75
164 | U9G G60C U116A | -1.45
165 | G117C G120A | -3.91
166 | C3U C12A G69U G117A | -2.56
167 | U21A G36C G113U U133A | -2.25
